Results from paper doi:10.1101/2024.11.25.625199.

Molecular target: cross-linked CA(M66I) hexamer, CA(A14C/E45C/W184A/M185A) with M66I (HIV-1)
Experiment: crystal structure

Question: With “cross-linked CA(M66I) hexamer, CA(A14C/E45C/W184A/M185A) with M66I (natural protein)” as the substance, how does the stoichiometry N read?
Answer: The stoichiometry N was 6.
